The values that follow are results of earlier work, collected in article PMC10919381.

Like-named read-outs stand apart in the source and are kept apart here.

The target of data set [1] is CBP/p300 TAZ1 (Homo sapiens) (UniProt Q92793).
For data set [2] the target is unchanged. This is another data set of the same source.

Sequence of UniProt Q92793 (Q92793 347-433): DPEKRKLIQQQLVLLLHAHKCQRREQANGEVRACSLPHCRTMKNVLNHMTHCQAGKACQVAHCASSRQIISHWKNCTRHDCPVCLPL

By Kd is commonly meant the concentration at which binding is half-saturated. In the case of HIF-1α (from UniProt Q16665), in data set [1], the Kd is 10 nM.

As to CITED2 (from UniProt Q99967), in data set [2], the Kd is 10 nM.
